One assay deals with α4β7 integrin on RPMI 8866 cells (UniProt P13612). Kind of assay: cell-based or functional assay.
Regarding “C-N cyclic peptide SEQ ID NO: 484, cyclo<a-(N-Me-R)-S-D-T-L-e>”, the Cell Adhesion A4B7 (nM); RPMI 8866 cells adhering to plate-bound rh MAdCAM-1/Fc Chimera, MTT read-out is over 1000 nM.

Turning to “C-N cyclic peptide SEQ ID NO: 477, Cyclo(a-(N-Me-R)-S-D-T-L-a)”, the Cell Adhesion A4B7 (nM); RPMI 8866 cells adhering to plate-bound rh MAdCAM-1/Fc Chimera, MTT read-out was over 10000 nM.

Consider “C-N cyclic peptide SEQ ID NO: 495, cyclo<f-(N-Me-R)-S-D-T-L-a>”, for which the Cell Adhesion A4B7 (nM); RPMI 8866 cells adhering to plate-bound rh MAdCAM-1/Fc Chimera, MTT read-out is over 10000 nM.

For the substance “C-N cyclic peptide SEQ ID NO: 479, cyclo<a-(N-Me-R)-S-D-T-L-n>”, the Cell Adhesion A4B7 (nM); RPMI 8866 cells adhering to plate-bound rh MAdCAM-1/Fc Chimera, MTT read-out was over 10000 nM.

A further assay has as its target rh integrin α4β7 (R&D Systems #5397-A30) (human) (UniProt P13612). Kind of assay: α4β7-MAdCAM competition ELISA.
The substance “C-N cyclic peptide SEQ ID NO: 498, cyclo<p-(N-Me-R)-S-D-T-L-a>” yielded an IC50 of over 1000 nM.

“C-N cyclic peptide SEQ ID NO: 492, cyclo<a-(N-Me-R)-S-D-T-L-f>” came in with an IC50 of over 1000 nM.

“C-N cyclic peptide SEQ ID NO: 478, cyclo<a-(N-Me-R)-S-D-T-L-n>” gave an IC50 of over 1000 nM.

Regarding “C-N cyclic peptide SEQ ID NO: 502, cyclo<A-(N-Me-R)-S-D-T-L-a>”, the IC50 was over 1000 nM.

In turn, “C-N cyclic peptide SEQ ID NO: 485, cyclo<k-(N-Me-R)-S-D-T-L-a>” registered an IC50 of over 1000 nM.

In turn, “C-N cyclic peptide SEQ ID NO: 480, cyclo<h-(N-Me-R)-S-D-T-L-a>” yielded an IC50 of over 1000 nM.

The substance “C-N cyclic peptide SEQ ID NO: 483, cyclo<a-(N-Me-R)-S-D-T-L-e>” registered an IC50 of over 1000 nM.

For “C-N cyclic peptide SEQ ID NO: 500, cyclo<r-(N-Me-R)-S-D-T-L-a>”, the IC50 is over 1000 nM.

On to “C-N cyclic peptide SEQ ID NO: 503, cyclo<A-(N-Me-R)-S-D-T-L-k>”, for which the IC50 is over 1000 nM.

For “C-N cyclic peptide SEQ ID NO: 496, cyclo<l-(N-Me-R)-S-D-T-L-a>”, the IC50 is over 1000 nM.

In turn, “C-N cyclic peptide SEQ ID NO: 486, cyclo<k-(N-Me-R)-S-D-T-L-a>” displayed an IC50 of over 1000 nM.

“C-N cyclic peptide SEQ ID NO: 489, cyclo<a-(N-Me-R)-S-D-T-L-l>”: the IC50 was over 1000 nM.

Turning to “C-N cyclic peptide SEQ ID NO: 482, cyclo<a-(N-Me-R)-S-D-T-L-e>”, the IC50 is over 1000 nM.

For “C-N cyclic peptide SEQ ID NO: 490, cyclo<a-(N-Me-R)-S-D-T-L-h>”, the IC50 was over 1000 nM.

“C-N cyclic peptide SEQ ID NO: 504, cyclo<a-(N-Me-R)-S-D-T-L-A-a>” registered an IC50 of over 1000 nM.

“C-N cyclic peptide SEQ ID NO: 494, cyclo<f-(N-Me-R)-S-D-T-L-a>” displayed a 50% inhibitory concentration (IC50) of over 1000 nM.
